In article PMC8530329 (2021):

Tests used:
[1] = molecular target: T1, SARS-CoV-2 RBD-Flag-His protein (SARS-CoV-2, UniProt P0DTC2 319-541); assay: BLI
[2] = molecular target: T1, SARS-CoV-2 RBD-Flag-His protein; assay: BLI; remark: listed apart in the source

B1: RBD-chAb-45 (antibody, V domains shown)
VH: EVQLQQSGPELVKPGASVKISCKTSGYTFTEYTIYWVKQSLGKSLEWIGGNNPNNDDTTYKQFFKGKATLTVDKSSSTAYMELRSLTSEDSAVYYCARDGYPYYYALDFWGQGTSVTVSS
VL: DIVMTQSQKFMSTSVGDRVSVTCKSSQNVGTNVAWYQQKPGQSPKALIYSASYRYSGVPDHFTGSGSGTDFTLTISNVQSADLAEYFCQQYNNYPWTFGGGTKLEIK
B1 gave a Kd [1] of 0.282 nM and a koff [2] of 0.000282 s⁻¹.
